Data from publication PMC2191977 (The Journal of Experimental Medicine, 1995).

Target: B7 QDP/LEK (mouse) (UniProt Q00609)
Test: flow cytometry on cells

Sequence of CTLA4Ig (P09793 36-161): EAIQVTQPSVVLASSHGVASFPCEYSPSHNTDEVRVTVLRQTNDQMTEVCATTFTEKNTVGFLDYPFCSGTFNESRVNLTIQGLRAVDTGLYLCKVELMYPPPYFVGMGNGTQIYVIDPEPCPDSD

% wild-type B7 binding (normalised to anti-B7 mAb 10.16A.1): 15% | MF (mean fluorescence, control subtracted): 42 MF
Substance: CTLA4Ig (from UniProt P09793 36-161) (Fc fusion)
